{"source": "paper PMC3950707", "key": {"LexA [1]": {"system": "LexA", "experiment": "single-molecule FRET (smTIRF), koff/kon", "settings": "smTIRF and PIFE on DNA: 10 mM Tris-HCl pH 8.0, 130 mM NaCl, 10% glycerol, 0.005% Tween20, 1% BME (0.1 mg/ml BSA in smTIRF and LexA PIFE), nucleosome smTIRF and …"}, "[2]": {"system": "Gal4(1-147) (Saccharomyces cerevisiae)", "experiment": "ensemble PIFE", "settings": "100 pM DNA (titration-limited), Hill 1.5; legend error 5; internal aminoC6dT in both primers; smTIRF and PIFE on DNA: 10 mM Tris-HCl pH 8.0, 130 mM NaCl, 10% glycerol, 0.005% Tween20, 1% BME (0.1 mg/ml BSA in smTIRF and LexA PIFE); nucleosome smTIRF and …"}, "[3]": {"system": "Gal4(1-147) (Saccharomyces cerevisiae)", "experiment": "EMSA", "settings": "200 pM DNA (titration-limited), Hill 1.5; legend 240 +/- 10; poly-dIdC; internal aminoC6dT in both primers; smTIRF and PIFE on DNA: 10 mM Tris-HCl pH 8.0, 130 mM NaCl, 10% glycerol, 0.005% Tween20, 1% BME (0.1 mg/ml BSA in smTIRF and LexA PIFE); nucleosome smTIRF and …"}, "[4]": {"system": "Gal4(1-147) (Saccharomyces cerevisiae)", "experiment": "single-molecule PIFE intensity histograms (smTIRF)", "settings": "Hill 2; Fig 4 legend gives 5 +/- 1; koff << 5e-4 s-1; internal aminoC6dT in both primers; smTIRF and PIFE on DNA: 10 mM Tris-HCl pH 8.0, 130 mM NaCl, 10% glycerol, 0.005% Tween20, 1% BME (0.1 mg/ml BSA in smTIRF and LexA PIFE); nucleosome smTIRF and …"}, "LexA [5]": {"system": "LexA", "experiment": "ensemble PIFE", "settings": "0.2 nM DNA, non-cooperative fit; aminoC6 at 5' end; aminoC6dT in reverse primer; smTIRF and PIFE on DNA: 10 mM Tris-HCl pH 8.0, 130 mM NaCl, 10% glycerol, 0.005% Tween20, 1% BME (0.1 mg/ml BSA in smTIRF and LexA PIFE); nucleosome smTIRF and …"}, "LexA [6]": {"system": "LexA", "experiment": "single-molecule PIFE (smTIRF), koff/kon", "settings": "aminoC6 at 5' end; aminoC6dT in reverse primer; smTIRF and PIFE on DNA: 10 mM Tris-HCl pH 8.0, 130 mM NaCl, 10% glycerol, 0.005% Tween20, 1% BME (0.1 mg/ml BSA in smTIRF and LexA PIFE); nucleosome smTIRF and …"}, "[7]": {"system": "Gal4(1-147) (Saccharomyces cerevisiae)", "experiment": "single-molecule FRET (smTIRF), koff/kon", "settings": "aminoC6 at 5' end; smTIRF and PIFE on DNA: 10 mM Tris-HCl pH 8.0, 130 mM NaCl, 10% glycerol, 0.005% Tween20, 1% BME (0.1 mg/ml BSA in smTIRF and LexA PIFE); nucleosome smTIRF and …"}}, "data": [{"substance": "LexA dinucleosome array", "values": [{"measurement": "Kd", "setting": "LexA [1]; internal aminoC6dT", "value": 40000, "unit": "nM"}]}, {"substance": "dsDNA-Gal4", "values": [{"measurement": "K half", "setting": "[2]", "value": 0.042, "unit": "nM"}, {"measurement": "K half", "setting": "[3]", "value": 0.242, "unit": "nM"}, {"measurement": "K half", "setting": "[4]", "value": 5, "unit": "pM"}]}, {"substance": "dsDNA-LexA", "values": [{"measurement": "Kd", "setting": "LexA [5]", "value": 0.13, "unit": "nM"}, {"measurement": "Kd", "setting": "LexA [6]", "value": 0.07, "unit": "nM"}]}, {"substance": "nucDNA-Gal4 mononucleosome", "values": [{"measurement": "Kd", "setting": "[7]", "value": 0.051, "unit": "nM"}]}, {"substance": "nucDNA-LexA mononucleosome", "values": [{"measurement": "Kd", "setting": "LexA [1]; aminoC6 at 5' end", "value": 40000, "unit": "nM"}]}]}
